Patent US20250289885A1 (TRUSTEES OF BOSTON UNIVERSITY, published 2025)

What was measured:
[1] = biological target: T1, Notch1-Gal4 chimeric receptor (hN1 ECD-Gal4 ICD) on CHO-K1 cells (human, UniProt P46531 19-1735); test: fluorescence microscopy of JFX650-labelled probody on CHO-K1 cells expressing Notch1-Gal4
T1 construct: extracellular domain; H2B-mTurq2 marker; also called Notch1-Ga4; NOTCH1 ECD-GAL4 ICD; not shown: transmembrane segment and Gal4 intracellular domain
From the text: FIGS. 30A and 30B present data showing anti-NRR1-based probodies can bind Notch1 receptors following deletion of the S1 loop (ΔS1) containing the NRR's furin cleavage site. The probodies used represent the anti-NRR1 scFv fused to with a soluble mutant NRR (V1667D) from Notch1, linked together via a TEV protease substrate sequence. The probodies were also fused with a HaloTag domain, which remains attached to the anti-NRR scFv following TEV cleavage. CHO-K1 cells expressing a Notch1-Gal4 chimeric receptor were treated with intact (uncleaved) and TEV protease-cleaved versions of the indicated probodies. The HaloTag domains were conjugated with a JFX650 dye to permit visualization of their binding to cell surface Notch1-Ga4 receptors. (FIG. 30A) Fluorescently labeled probody containing the S1 cleavage loop (Probody^V1667D-JF650) binds Notch1-Gal4 only in its TEV protease-cleaved state. (FIG. 30B) Fluorescently labeled probody containing the S1 cleavage loop deletion (Probody^V1667D(ΔS1)-JF650) similarly binds Notch1-Gal4 in a manner that is dependent on TEV protease cleavage. Insets represent emissions from a constitutively expressed H2B-mTurq2 expressed by the analyzed cells.

[2] = biological target: T2, hNotch1 receptor, stably integrated, on clonal CHO-K1 cells (human, UniProt P46531 19-2555); test: fluorescence microscopy of cell-surface bound probody on clonal CHO-K1 cells expressing hNotch1, 40-minute incubation, wash, fixation
T2 construct: whole, on cells; also called human Notch1
From the text: FIGS. 33A-33C present schematics and data showing activation of a probody/masked antibody with specificity against human Notch1 (hNotch) NRR. (FIG. 33A) Schematic depicting the TEV protease (TEVp)-mediated activation and binding of the anti-hNotch1 probody. The probody sequence used contains the V1677D mutant NRR as a “mask” and is linked to an anti-hNotch1 scFv via a linker containing a TEVp substrate sequence. Upon cleavage by TEVp, the NRR mask dissociates from the scFv and is thus able to bind its corresponding antigen. A fluorophore is linked to the probody sequence to permit visualization. (FIGS. 33B and 33C) Tests of scFv binding to hNotch1. Clonal CHO-K1 cells expressing a stably integrated hNotch1 receptor were incubated with the body alone (FIG. 33B) or with the pro body treated with TEVp (FIG. 33C). Following a 40-minute incubation, probody-containing media was removed, and cells were washed with fresh media prior to fixation and DNA staining with Hoechst-JF526 (inset). Cells were imaged to detect cell-surface bound (activated) probody and Hoechst-JF526. Binding to hNotch1 was observed only with the TEVp-cleaved probody sequence. The antibody sequence used in the body can inhibit signaling by wild-type and various disease-associated hNotch1 mutations (Wu et al. Nature 464: 1052-1057 (2010)).

[3] = biological target: T3, human Notch1-derived receptor overexpressed on CHO-K1 cells (human, UniProt P46531 19-1762, limits assumed); test: fluorescence microscopy of JFX650-labelled probody on CHO-K1 cells overexpressing a human Notch1-derived receptor
T3 construct: Cells also express H2B-mTurq; also called Notch1 receptors
T3 sequence (P46531 19-1762 limits assumed): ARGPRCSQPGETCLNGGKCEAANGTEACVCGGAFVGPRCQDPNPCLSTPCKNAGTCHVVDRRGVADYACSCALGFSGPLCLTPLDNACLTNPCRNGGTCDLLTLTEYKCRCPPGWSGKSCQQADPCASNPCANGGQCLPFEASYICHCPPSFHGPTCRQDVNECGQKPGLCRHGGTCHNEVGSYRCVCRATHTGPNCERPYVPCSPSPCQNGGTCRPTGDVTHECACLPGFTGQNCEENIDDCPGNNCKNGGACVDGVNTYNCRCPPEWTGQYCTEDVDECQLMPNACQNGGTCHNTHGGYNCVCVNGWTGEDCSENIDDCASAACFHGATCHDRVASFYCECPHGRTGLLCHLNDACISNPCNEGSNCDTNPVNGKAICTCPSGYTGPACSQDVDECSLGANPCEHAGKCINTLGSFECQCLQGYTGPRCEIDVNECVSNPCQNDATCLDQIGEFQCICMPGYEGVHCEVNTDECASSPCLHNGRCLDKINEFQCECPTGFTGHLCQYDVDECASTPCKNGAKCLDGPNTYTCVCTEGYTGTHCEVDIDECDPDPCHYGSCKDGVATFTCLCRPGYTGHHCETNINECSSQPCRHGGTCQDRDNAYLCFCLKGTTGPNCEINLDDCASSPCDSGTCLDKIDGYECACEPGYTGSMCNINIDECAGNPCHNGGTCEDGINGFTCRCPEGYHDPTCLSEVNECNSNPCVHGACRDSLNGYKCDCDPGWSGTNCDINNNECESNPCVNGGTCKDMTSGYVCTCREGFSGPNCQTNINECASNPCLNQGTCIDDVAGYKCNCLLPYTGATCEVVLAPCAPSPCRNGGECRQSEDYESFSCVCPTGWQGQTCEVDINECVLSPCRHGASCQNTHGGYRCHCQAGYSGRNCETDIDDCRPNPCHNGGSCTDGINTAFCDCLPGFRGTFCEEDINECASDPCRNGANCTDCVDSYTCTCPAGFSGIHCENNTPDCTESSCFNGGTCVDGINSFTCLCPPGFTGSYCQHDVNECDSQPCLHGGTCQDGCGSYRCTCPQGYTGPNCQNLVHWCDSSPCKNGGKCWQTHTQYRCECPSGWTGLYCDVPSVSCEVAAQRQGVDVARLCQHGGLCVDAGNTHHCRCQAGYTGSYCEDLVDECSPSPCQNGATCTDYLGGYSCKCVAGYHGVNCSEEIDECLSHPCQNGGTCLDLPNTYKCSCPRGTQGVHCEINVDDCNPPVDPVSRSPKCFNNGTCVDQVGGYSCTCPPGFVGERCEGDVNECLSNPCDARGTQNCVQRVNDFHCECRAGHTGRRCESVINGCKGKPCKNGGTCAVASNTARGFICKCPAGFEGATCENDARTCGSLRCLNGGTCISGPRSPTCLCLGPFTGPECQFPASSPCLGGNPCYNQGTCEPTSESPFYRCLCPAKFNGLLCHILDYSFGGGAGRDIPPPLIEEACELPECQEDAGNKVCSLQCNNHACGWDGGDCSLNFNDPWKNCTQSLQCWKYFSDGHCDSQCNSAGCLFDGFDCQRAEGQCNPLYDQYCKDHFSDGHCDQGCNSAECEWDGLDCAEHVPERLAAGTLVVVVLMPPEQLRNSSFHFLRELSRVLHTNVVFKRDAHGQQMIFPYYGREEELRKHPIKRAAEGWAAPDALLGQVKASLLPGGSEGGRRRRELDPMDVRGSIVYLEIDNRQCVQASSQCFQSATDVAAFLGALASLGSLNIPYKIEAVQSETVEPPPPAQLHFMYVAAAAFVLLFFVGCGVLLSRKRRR
Method: FIGS. 36A and 36B present data showing Cleavage-Dependent Binding of a Brontictuzumab-Based Probody to Notch1 Receptors. A probody containing a brontictuzumab-based scFv was fused to a TEV cleavable linker and a soluble form of the human Notch1 NRR. Probodies containing either (FIG. 36A) the V1667D NRR mutant NRR, or (FIG. 36B) wild-type NRR were tested. The probodies also contained a HaloTag for labeling with a JFX650 dye. Binding of the probody to Notch1 receptors was tested using uncleaved and TEV protease-cleaved probody. The evaluated cells were based on CHO-K1 celle overexpressing a human Notch1-derived receptor; cells also expressed H2B-mTurq as a fluorescent marker (inset). Brontictuzumab is an antibody that binds the NRR from Notch1 (NRR1). Brontictuzumab (aka OMP-52M51) is originally from Oncomed Pharmaceuticals. This antibody is distinct from the Genentech anti-NRR1 used in our receptor and other Notch1 probody designs.

T1 sequence (P46531 19-1735, stated change not applied): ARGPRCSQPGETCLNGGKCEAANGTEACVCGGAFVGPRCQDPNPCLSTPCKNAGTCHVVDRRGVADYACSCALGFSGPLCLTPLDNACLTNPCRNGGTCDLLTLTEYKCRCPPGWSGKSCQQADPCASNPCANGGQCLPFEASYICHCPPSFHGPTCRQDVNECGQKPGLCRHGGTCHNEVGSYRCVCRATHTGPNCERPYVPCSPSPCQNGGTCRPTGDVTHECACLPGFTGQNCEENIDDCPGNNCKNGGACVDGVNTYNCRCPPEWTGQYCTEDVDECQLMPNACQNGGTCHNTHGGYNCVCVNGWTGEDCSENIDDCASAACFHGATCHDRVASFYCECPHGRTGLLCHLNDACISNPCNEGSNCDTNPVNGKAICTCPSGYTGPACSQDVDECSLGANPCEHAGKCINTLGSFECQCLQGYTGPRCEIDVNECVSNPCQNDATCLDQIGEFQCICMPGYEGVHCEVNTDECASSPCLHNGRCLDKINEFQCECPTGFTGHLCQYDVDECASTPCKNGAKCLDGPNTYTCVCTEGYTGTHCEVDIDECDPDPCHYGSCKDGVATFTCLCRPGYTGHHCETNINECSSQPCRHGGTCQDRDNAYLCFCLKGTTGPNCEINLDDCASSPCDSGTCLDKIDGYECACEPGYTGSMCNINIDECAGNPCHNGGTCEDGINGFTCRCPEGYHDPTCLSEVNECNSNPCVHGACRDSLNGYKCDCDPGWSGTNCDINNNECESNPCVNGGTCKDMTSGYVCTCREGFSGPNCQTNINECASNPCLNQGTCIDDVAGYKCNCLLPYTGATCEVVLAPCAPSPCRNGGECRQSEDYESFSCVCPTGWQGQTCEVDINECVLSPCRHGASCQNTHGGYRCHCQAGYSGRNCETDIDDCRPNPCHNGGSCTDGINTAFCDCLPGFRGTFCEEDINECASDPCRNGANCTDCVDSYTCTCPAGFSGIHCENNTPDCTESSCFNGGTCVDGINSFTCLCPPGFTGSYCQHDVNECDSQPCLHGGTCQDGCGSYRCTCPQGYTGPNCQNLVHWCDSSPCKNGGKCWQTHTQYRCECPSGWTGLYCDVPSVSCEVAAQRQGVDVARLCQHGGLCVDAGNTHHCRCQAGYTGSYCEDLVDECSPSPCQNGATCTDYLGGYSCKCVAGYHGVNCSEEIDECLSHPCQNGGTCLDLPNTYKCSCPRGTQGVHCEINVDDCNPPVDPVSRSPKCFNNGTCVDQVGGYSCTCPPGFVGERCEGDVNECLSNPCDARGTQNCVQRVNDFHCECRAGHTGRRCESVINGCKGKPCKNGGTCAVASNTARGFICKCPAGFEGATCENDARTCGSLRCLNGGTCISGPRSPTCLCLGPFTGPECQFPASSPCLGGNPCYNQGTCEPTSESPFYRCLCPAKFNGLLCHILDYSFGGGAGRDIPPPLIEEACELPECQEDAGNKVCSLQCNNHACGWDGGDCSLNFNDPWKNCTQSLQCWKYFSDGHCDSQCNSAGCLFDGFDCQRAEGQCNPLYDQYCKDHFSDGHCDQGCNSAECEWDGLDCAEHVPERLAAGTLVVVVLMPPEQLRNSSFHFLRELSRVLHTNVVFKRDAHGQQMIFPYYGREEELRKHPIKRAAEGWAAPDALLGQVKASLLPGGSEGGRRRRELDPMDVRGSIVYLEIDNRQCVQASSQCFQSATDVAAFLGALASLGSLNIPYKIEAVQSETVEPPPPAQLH

Row | binding result [1] | binding result [2] | binding result [3] | Binder
1 | no binding | no binding | – | TEV-cleavable Anti-Notch1 probody, Genentech scFv (HaloTag-anti-NRR1-scFv-TEVcs-msNRR1^V1677D), intact (uncleaved) (other, HaloTag domain conjugated with a fluorescent HaloTag-ligand dye in the binding tests (JFX650; Halo-JF635i in paragraph 360), Secreted protein; also called Probody^V1667D; Probody^V1667D-JF650) YPYDVPDYATGMAEIGTGFPFDPHYVEVLGERMHYVDVGPRDGTPVLFLHGNPTSSYVWRNIIPHVAPTHRCIAPDLIGMGKSDKPDLGYFFDDHVRFMDAFIEALGLEEVVLVIHDWGSALGFHWAKRNPERVKGIAFMEFIRPIPTWDEWPEFARETFQAFRTTDVGRKLIIDQNVFIEGTLPMGVVRPLTEVEMDHYREPFLNPVDREPLWRFPNELPIAGEPANIVALVEEYMDWLHQSPVPKLLFWGTPGVLIPPAEAARLAKSLPNCKAVDIGPGLNLLQEDNPDLIGSEIARWLSTLEISGGGGGSTGDGGGGEVQLVESGGGLVQPGGSLRLSCAASGFTFSSYWIHWVRQAPGKGLEWVARINPPNRSNQYADSVKGRFTISADTSKNTAYLQMNSLRAEDTAVYYCARGSGFRWVMDYWGQGTLVTVSSGGSSRSSSSGGGGSGGGGDIQMTQSPSSLSASVGDRVTITCRASQDVSTAVAWYQQKPGKAPKLLIYSASFLYSGVPSRFSGSGSGTDFTLTISSLQPEDFATYYCQQFYTTPSTFGQGTKVEIKGSNSGGTLEGGGSGENLYFQGGGGGRTGGGSEQKLISEEDLGGGSILDYSFTGGAGRDIPPPQIEEACELPECQVDAGNKVCNLQCNNHACGWDGGDCSLNFNDPWKNCTQSLQCWKYFSDGHCDSQCNSAGCLFDGFDCQLTEGQCNPLYDQYCKDHFSDGHCDQGCNSAECEWDGLDCAEHVPERLAAGTLVLVVLLPPDQLRNNSFHFLRELSHVLHTNVVFKRDAQGQQMIFPYYGHEEELRKHPIKRSTVGWATSSLLPGTSGGRQRRELDPMDIRGSIDYLEIDNRQCVQSSSQCFQSATDVAAFLGALASLGSLNIPYKIEAVKSEPVEGPV
2 | – | – | no binding | TEV-cleavable Anti-Notch1 probody, with brontictuzumab scFv, Wild-type NRR (HaloTag-brontictuzumab-scFv-TEVcs-hNRR1^WT), intact (uncleaved) (other, HaloTag labelled with JFX650 dye, also called Brontictuzumab-based probody, wild-type NRR) YPYDVPDYATGMAEIGTGFPFDPHYVEVLGERMHYVDVGPRDGTPVLFLHGNPTSSYVWRNIIPHVAPTHRCIAPDLIGMGKSDKPDLGYFFDDHVRFMDAFIEALGLEEVVLVIHDWGSALGFHWAKRNPERVKGIAFMEFIRPIPTWDEWPEFARETFQAFRTTDVGRKLIIDQNVFIEGTLPMGVVRPLTEVEMDHYREPFLNPVDREPLWRFPNELPIAGEPANIVALVEEYMDWLHQSPVPKLLFWGTPGVLIPPAEAARLAKSLPNCKAVDIGPGLNLLQEDNPDLIGSEIARWLSTLEISGGGGGSTGDGGGGQVQLVQSGAEVKKPGASVKISCKVSGYTLRGYWIEWVRQAPGKGLEWIGQILPGTGRTNYNEKFKGRVTMTADTSTDTAYMELSSLRSEDTAVYYCARFDGNYGYYAMDYWGQGTTVTVSSGGSSRSSSSGGGGSGGGGQAVVTQEPSLTVSPGGTVTLTCRSSTGAVTTSNYANWFQQKPGQAPRTLIGGTNNRAPGVPARFSGSLLGGKAALTLSGAQPEDEAEYYCALWYSNHWVFGGGTKLTVLGSNSGGTLEGGGSGENLYFQGGGGGRTGGGSEQKLISEEDLGGGSILDYSFGGGAGRDIPPPLIEEACELPECQEDAGNKVCSLQCNNHACGWDGGDCSLNFNDPWKNCTQSLQCWKYFSDGHCDSQCNSAGCLFDGFDCQRAEGQCNPLYDQYCKDHFSDGHCDQGCNSAECEWDGLDCAEHVPERLAAGTLVVVVLMPPEQLRNSSFHFLRELSRVLHTNVVFKRDAHGQQMIFPYYGREEELRKHPIKRAAEGWAAPDALLGQVKASLLPGGSEGGRRRRELDPMDVRGSIVYLEIDNRQCVQASSQCFQSATDVAAFLGALASLGSLNIPYKIEAVQSETVEPGSLVPRGSSHHHHHHGPV
